Biological target: T1, VC2.2.2 VH-myc (human)
T1 construct: as the VH of m13 (VC2.2.2), from Glu1 to Ser113; Chothia numbering; also called anti-VEGF-C VC2.2.2 VH; single VH-domain of VC2.2.2; source: E. coli (pHEN1), IPTG-induced, bacterial supernatant (ELISA); protein-A purified (SEC); not shown: myc, C-terminal, kept
Test: ELISA; bacterial supernatant of IPTG-induced cultures expressing VH-myc on ΔNΔC-VEGF-C or alpha-2-macroglobulin; detection with anti-myc and anti-mouse HRP or with protein-A-HRP
Conditions: one partner purified

B1: ΔNΔC-VEGF-C (variant not stated for the experiment) (ligand, human, UniProt P49767 112-227, looked up)
chain: AHYNTEILKSIDNEWRKTQCMPREVCIDVGKEFGVATNTFFKPPCVSVYRCGGCCNSEGLQCMNTSTSYLSKTLFEITVPLSQGPKPVTISFANHTSCRCMSKLDVYRQVHSIIRR
notes: fully processed ΔNΔC form of human VEGF-C; also called fully processed human VEGF-C
B1: binds.

Reference: PMC2914788, “Phage-Derived Fully Human Monoclonal Antibody Fragments to Human Vascular Endothelial Growth Factor-C Block Its Interaction with VEGF Receptor-2 and 3” (PLoS ONE, 2010)
